Paper PMC2185538, “Purification of the full-length Xenopus interphotoreceptor retinoid binding protein and growth of diffraction-quality crystals” (Molecular Vision, 2007)

Biological target: the molecule itself
Assay: SEC; Sephacryl S-300HR 2.6 x 100 cm, 25 mM Tris-HCl pH 7.5 at 4 °C, 50 mM NaCl, 1 mM DTT; dimer between elution volumes 212 and 250 ml

B1: recombinant full-length four-module Xenopus interphotoreceptor retinoid-binding protein (natural protein)
chain: not shown
notes: begins FQPSL; also called xIRBP; Xenopus IRBP; source: E. coli Top10, thioredoxin fusion cleaved with enterokinase, purified (HisTrap twice, Sephacryl S-300HR); not shown: thioredoxin with His-patch, N-terminal, cleaved
  stoichiometry N: 2
